Several values for one entry are separate records, joined by “and”; a condition that tells them apart may be missing. Equal entries are not always repeated. Where two headings read alike, the source gives them in different places.
What was measured:
[1] = target: FLAG–Phd1-73 (PhdSTm antitoxin, His6 removed by thrombin) (Salmonella typhimurium); assay: SEC; HiLoad 16/600 Superdex 75pg, 4 C, Phd SEC buffer (0.025 M K2HPO4, 0.15 M NaCl, 5% glycerol, pH 8.0); mass from the manufacturer's calibration curves; last purification step
[2] = target: Doc1-122–His6 (DocSTm toxin) (Salmonella typhimurium); assay: SPR; Biacore S200; Doc-His6 captured on NTA chip; Phd1-73 protein as analyte, multi-cycle kinetics, eight concentrations 25 nM to 0.390625 nM, association 200 s, dissociation 1500 s; 22 C; 10 mM HEPES, 500 mM NaCl, 50 uM EDTA, 0.005% TWEEN 20, pH 8.0; kinetic 1:1 fit with constant RMAX
[3] = target: Doc1-122–His6 (DocSTm toxin) (Salmonella typhimurium); assay: as above; remark: listed apart in the source
[4] = system: DocH66Y (E. coli P1 Phage); details: cited from earlier work
Excerpt: (§1) page 23: Table S5. […] Organism Complex Kd (nM) SPR Kd (nM) ITC Reference S. Typhimurium Doc-Phd1-73 0.061 ± 0.019 - This study S. Typhimurium Doc-Phd52-73 (peptide 1) 0.073 ± 0.018 - This study E. coli P1 Phage Doc-Phd1-73 350 - 5 E. coli P1 Phage DocH66Y-Phd1-73 1300 - 5 E. coli P1 Phage Doc-Phd51-73 - 240 5 E. coli P1 Phage DocH66Y-Phd52-73 - 1 6 S23

[5] = system: Doc (E. coli P1 Phage); details: ref 5 (ESI), read-out: Kd (nM) ITC; cited from earlier work
Excerpt: as §1

[6] = target: Doc1-122–His6 (DocSTm toxin) (Salmonella typhimurium); assay: SPR; Biacore S200; Doc-His6 captured on a Series S NTA chip (200-400 RU); peptide as analyte, single-cycle kinetics, six concentrations (3-fold dilutions), 30 uL/min; 22 C; 10 mM HEPES, 500 mM NaCl, 50 uM EDTA, 0.005% TWEEN 20, pH 8.0; kinetic 1:1 fit
[7] = target: Doc1-122–His6 (DocSTm toxin) (Salmonella typhimurium); assay: as above; remark: listed apart in the source
[8] = target: Doc1-122–His6 (DocSTm toxin) (Salmonella typhimurium); assay: as above; remark: listed apart in the source
[9] = target: Doc1-122–His6 (DocSTm toxin) (Salmonella typhimurium); assay: as above; remark: listed apart in the source
[10] = target: T1, Doc toxin of Salmonella enterica serovar Typhimurium (DocSTm) (Salmonella enterica serovar Typhimurium, UniProt A0A1C9CWN5 1-126); assay: differential scanning fluorimetry; DocSTm 5 μM with SYPRO Orange, 25 to 95 °C; 50 μM PhdSTm or peptide 1 (Figure 2a); 20 mM K2HPO4, 50 mM (NH4)2SO4, pH 8.0; shift of the melting temperature of DocSTm; details: both partners purified
[11] = target: T1, Doc toxin of Salmonella enterica …; assay: SPR; DocSTm immobilised on a Series S NTA chip; analytes in multicycle kinetics, kinetic and/or steady-state 1:1 fit (steady-state for peptide 14); 22 °C; 10 mM HEPES, 500 mM NaCl, 50 μM EDTA, 0.005% TWEEN 20, pH 8.0; details: both partners purified
[12] = target: T1, Doc toxin of Salmonella enterica …; assay: SPR; DocSTm immobilised on a Series S NTA chip (150 nM, 200-400 RU); analytes in single-cycle kinetics, typically six concentrations, kinetic 1:1 fit; 22 °C; 10 mM HEPES, 500 mM NaCl, 50 μM EDTA, 0.005% TWEEN 20, pH 8.0; details: both partners purified

With “FLAG–Phd1-73 (PhdSTm antitoxin, His6 removed by thrombin) (natural protein)” the stoichiometry N [1] was 2, the koff [2] was 2.9e-05 s⁻¹ and the kon [2] was 473000 M⁻¹ s⁻¹. For the same molecule, the Kd [3] was 0.0507 nM and 0.0505 nM and 0.0883 nM, the koff [3] was 3.02e-05 s⁻¹ and 2.2e-05 s⁻¹ and 3.42e-05 s⁻¹ and the kon [3] was 596000 M⁻¹ s⁻¹ and 436000 M⁻¹ s⁻¹ and 387000 M⁻¹ s⁻¹.

In the case of “Phd1-73 (E. coli P1 Phage): full-length Phd antitoxin from E. coli P1 phage, literature values”, the Kd ([4]; ref 5 (ESI), read-out: Kd (nM) SPR) is listed as 1300 nM.

For “Phd51-73 (E. coli P1 Phage): Phd residues 51-73 of E. coli P1 phage, literature value (ALDAEFASLFDTLDSTNKELVNR; UniProt Q06253 51-73, looked up, fragment)”, the Kd [5] is listed as 240 nM.

For “Phd52-73 (E. coli P1 Phage): Phd residues 52-73 of E. coli P1 phage, literature value (LDAEFASLFDTLDSTNKELVNR; UniProt Q06253 52-73, looked up, fragment)”, the Kd ([4]; ref 6 (ESI), read-out: Kd (nM) ITC) is given as 1 nM.

In the case of peptide 1 (PhdSTm52-73), the kon [6] is reported as 1.1e+06 1/(M s) (2×) and 1.6e+06 1/(M s) and 1.3e+06 1/(M s), the koff [7] is reported as 9.1e-05 s⁻¹ and the kon [7] is reported as 1.25e+06 M⁻¹ s⁻¹.

In the case of peptide 12 (PhdSTm52-73-N65A), the kon [8] is reported as 1.3e+06 1/(M s) (2×) and 1.6e+06 1/(M s) and 1.4e+06 1/(M s), the Kd [7] is reported as 0.145 nM and the koff [7] is reported as 0.000203 s⁻¹. It also gave a kon [7] of 1.4e+06 M⁻¹ s⁻¹.

In the case of peptide 19 (PhdSTm52-73-K73A), the kon [9] is reported as 1.08e+06 M⁻¹ s⁻¹ and 2.12e+06 M⁻¹ s⁻¹ and 1.28e+06 M⁻¹ s⁻¹, the Kd [7] is reported as 0.087 nM and the koff [7] is reported as 0.000126 s⁻¹. It also gave a kon [7] of 1.44e+06 M⁻¹ s⁻¹.

B1: Phd antitoxin of Salmonella enterica serovar Typhimurium, full-length (PhdSTm) (natural protein)
chain: MFMRTVNYSEARQNLAEVLESAVTGGPVTITRRGHKSAVIISAEEFERYQTARMDDEFAAIMAVHGNELRELADK
notes: also called PhdSTm 1-73; full-length Phd antitoxin
In the case of B1, the “ΔTm of DocSTm (DSF)” value [10] is reported as 31.3 ± 0.9 °C and the “half-life of the complex” value [11] is reported as ~7 h.

B2: peptide 1 (Phd 52-73, Ac-WMDDEFAAIMAVHGNELRELADK-OH) (peptide)
peptide: Ac-WMDDEFAAIMAVHGNELRELADK-OH
notes: tryptophan introduced at the N-terminus for spectrophotometric quantification; not part of Phd; also called wild-type peptide 1; C-terminal Phd peptide; source: synthetic peptide
With B2 the “ΔTm of DocSTm (DSF)” value [10] was 28.8 ± 0.9 °C and the Kd [12] was 0.073 nM.

Source: article PMC9207808 (ACS Chemical Biology, 2022)
